In PMC9452904:

What was measured:
[1] = target: vacant ribosome; assay: fluorescence correlation spectroscopy (FCS); 100 nM Alexa488-labeled TF with increasing ribosome concentrations in HKM buffer (25 mM Hepes-KOH pH 7.4, 100 mM KCl, 5 mM MgCl2); ratio of ribosome-bound TF from a two-component fit, Kd from a quadratic fit
[2] = target: ribosome-nascent chain complex with the HA-tagged GatY(1-153) nascent chain (E. coli) (UniProt P0C8J6); assay: fluorescence correlation spectroscopy (FCS); endpoint: ~2 ug truncated mRNA and 100 nM labeled TF in PUREfrex solution, 5-15 min at 37 C, then measured; two-component fit with the fast component fixed to free TF
[3] = target: ribosome-nascent chain complex with the HA-tagged GatY(1-284) nascent chain (E. coli) (UniProt P0C8J6); assay: as above
[4] = target: ribosome-nascent chain complex with the HA-tagged GatY(1-284) nascent chain on the TMR-labeled Halo-S2 ribosome (E. coli | not stated) (UniProt P0C8J6); assay: single-molecule total internal reflection fluorescence microscopy (TIRFM); RNCs held on a PEG/biotin-PEG slide through neutravidin and anti-HA biotin; 50 nM Alexa647-labeled TF, 50 nM TMR-labeled Halo-S2 ribosome; 10 frames/s for 150 s; residence times fitted
[5] = target: ribosome-nascent chain complex with the HA-tagged GatY(1-153) nascent chain on the TMR-labeled Halo-S2 ribosome (E. coli | not stated) (UniProt P0C8J6); assay: as above
[6] = target: Trigger factor (Escherichia coli) (UniProt P0A850); details: cited from earlier work

Work on “Alexa488-labeled trigger factor TF-R14C (from UniProt P0A850 1-432) (natural protein)” yielded a Kd [1] of 2240 nM, a percent of TF in the slow component [2] of 90% and a percent of TF in the slow component [3] of 90%.

“Alexa647-labeled TF-R14C (from UniProt P0A850 1-432) (natural protein)” showed a half-life of the residence time (slow fraction) [4] of 9.8 s and a half-life of the residence time (fast component) [5] of 2.7 s.

For Trigger factor (from UniProt P0A850), the Kd [6] is given as 1500 nM.
